Experimental data published in US20210324054A1.
Changes are numbered by the printed parent chain. Values belong to the binder of their own block, whether it stands above or below them.

Molecular target: DN-IV quality control recombinant protein (produced by the company) (dengue virus)
Experiment: BLI, antibody on AMC sensor

- Kd: 3.97 nM
- koff: 0.00019 s⁻¹
- kon: 47800 M⁻¹ s⁻¹
B1: Mutation 1-23 (antibody, V domains shown)
VH: EVQLQQPGPELVKPGASVKMSCKASGYTFTSYVIHWVRQKPGQGLEWIGYMNPYNDGLKYNEKFIGKAILTSDKSSSTAYMQLSSLTSEDSAVYYCTKEGLFYVFDYWGQGTSVTVSS
VL: QIVLTQSPAIMSASPGEKVTMTCSATSSLSYMHWYQQKSGTSPKRWIYDSSKLASGVPVRFSGSGSGTSYSLTISSMEAEDAATYFCQQWRSDLPTFGAGTKLELKR

- Kd: 2.85 nM
- koff: 0.000133 s⁻¹
- kon: 46600 M⁻¹ s⁻¹
B2: Mutation 1-24 (antibody, V domains shown)
VH: B1 VH with Y32T, L58I, K98R, F105M
VL: B1 VL with L29V, S50T, Q89Y

- Kd: 0.57 nM
- koff: 0.000211 s⁻¹
- kon: 370000 M⁻¹ s⁻¹
B3: Mutation 1-47 (antibody, V domains shown)
VH: B1 VH with L58I, K98R
VL: B1 VL with L29I, Q89Y

- Kd: 3.79 nM
- koff: 0.000167 s⁻¹
- kon: 44100 M⁻¹ s⁻¹
B4: Mutation 1-50 (antibody, V domains shown)
VH: B1 VH
VL: B1 VL with L29I, S50T, Q89Y

- Kd: 0.661 nM
- koff: 0.000252 s⁻¹
- kon: 381000 M⁻¹ s⁻¹
B5: Mutation 1-35 (antibody, V domains shown)
VH: B1 VH with F105M
VL: B1 VL with L29V, Q89W

- Kd: 0.631 nM
- koff: 0.000221 s⁻¹
- kon: 350000 M⁻¹ s⁻¹
B6: Mutation 1-32 (antibody, V domains shown)
VH: B1 VH with L58I, F105M
VL: B1 VL with L29V, S50T

- Kd: 0.532 nM
- koff: 0.000209 s⁻¹
- kon: 393000 M⁻¹ s⁻¹
B7: Mutation 1-42 (antibody, V domains shown)
VH: B1 VH with Y32T, L58I, K98R
VL: B1 VL with S50T

- Kd: 2.89 nM
- koff: 0.000112 s⁻¹
- kon: 38700 M⁻¹ s⁻¹
B8: Mutation 1-34 (antibody, V domains shown)
VH: B1 VH with Y32S, L58I, K98R
VL: B1 VL with S50T, Q89Y

- Kd: 4.55 nM
- koff: 0.000186 s⁻¹
- kon: 40900 M⁻¹ s⁻¹
B9: Mutation 1-39 (antibody, V domains shown)
VH: B1 VH with Y32T, L58I, K98R
VL: B1 VL

- Kd: 3.55 nM
- koff: 0.000149 s⁻¹
- kon: 42000 M⁻¹ s⁻¹
B10: Mutation 1-27 (antibody, V domains shown)
VH: B1 VH with Y32T, K98R
VL: B1 VL with L29V

- Kd: 2.63 nM
- koff: 0.00011 s⁻¹
- kon: 41800 M⁻¹ s⁻¹
B11: Mutation 1-44 (antibody, V domains shown)
VH: B1 VH with K98R
VL: B1 VL with L29V, Q89Y

- Kd: 0.671 nM
- koff: 0.000261 s⁻¹
- kon: 389000 M⁻¹ s⁻¹
B12: Mutation 1-40 (antibody, V domains shown)
VH: B1 VH with Y32S
VL: B1 VL with L29V, S50T, Q89Y

- Kd: 0.657 nM
- koff: 0.000282 s⁻¹
- kon: 429000 M⁻¹ s⁻¹
B13: Mutation 1-36 (antibody, V domains shown)
VH: B1 VH with Y32T, K98R
VL: B1 VL

- Kd: 0.56 nM
- koff: 0.000276 s⁻¹
- kon: 493000 M⁻¹ s⁻¹
B14: Mutation 1-33 (antibody, V domains shown)
VH: B1 VH with Y32T, K98R
VL: B1 VL with L29I, Q89W

- Kd: 3.12 nM
- koff: 0.000132 s⁻¹
- kon: 42300 M⁻¹ s⁻¹
B15: Mutation 1-30 (antibody, V domains shown)
VH: B1 VH with Y32T, K98R, F105M
VL: B1 VL with S50T, Q89Y

- Kd: 3.61 nM
- koff: 0.000152 s⁻¹
- kon: 42100 M⁻¹ s⁻¹
B16: Mutation 1-26 (antibody, V domains shown)
VH: B1 VH with L58I, K98R, F105M
VL: B1 VL with S50T, Q89W

- Kd: 0.493 nM
- koff: 0.000178 s⁻¹
- kon: 361000 M⁻¹ s⁻¹
B17: Mutation 1-29 (antibody, V domains shown)
VH: B1 VH with L58I, K98R
VL: B1 VL with L29I, Q89W

- Kd: 0.455 nM
- koff: 0.00016 s⁻¹
- kon: 352000 M⁻¹ s⁻¹
B18: Mutation 1-41 (antibody, V domains shown)
VH: B1 VH with L58I, K98R, F105M
VL: B1 VL with L29I, Q89W

- Kd: 0.591 nM
- koff: 0.000259 s⁻¹
- kon: 438000 M⁻¹ s⁻¹
B19: Mutation 1-28 (antibody, V domains shown)
VH: B1 VH with Y32S, L58I, F105M
VL: B1 VL with L29V, S50T, Q89Y

- Kd: 0.643 nM
- koff: 0.000292 s⁻¹
- kon: 454000 M⁻¹ s⁻¹
B20: Mutation 1-38 (antibody, V domains shown)
VH: B1 VH with F105M
VL: B1 VL with L29I, Q89W

- Kd: 0.665 nM
- koff: 0.000248 s⁻¹
- kon: 373000 M⁻¹ s⁻¹
B21: Mutation 1-48 (antibody, V domains shown)
VH: B1 VH with Y32T, F105M
VL: B1 VL with Q89W

- Kd: 0.624 nM
- koff: 0.000256 s⁻¹
- kon: 410000 M⁻¹ s⁻¹
B22: Mutation 1-43 (antibody, V domains shown)
VH: B1 VH with Y32S, L58I, F105M
VL: B1 VL with S50T, Q89Y

- Kd: 4.22 nM
- koff: 0.000174 s⁻¹
- kon: 41200 M⁻¹ s⁻¹
B23: Mutation 1-45 (antibody, V domains shown)
VH: B1 VH with Y32T, L58I
VL: B1 VL with Q89W

- Kd: 0.569 nM
- koff: 0.000222 s⁻¹
- kon: 390000 M⁻¹ s⁻¹
B24: Mutation 1-46 (antibody, V domains shown)
VH: B1 VH with Y32S, K98R, F105M
VL: B1 VL with L29V, S50T

- Kd: 2.92 nM
- koff: 0.00014 s⁻¹
- kon: 47900 M⁻¹ s⁻¹
B25: Mutation 1-25 (antibody, V domains shown)
VH: B1 VH with Y32S, K98R
VL: B1 VL with L29I, Q89W

- Kd: 0.579 nM
- koff: 0.00023 s⁻¹
- kon: 397000 M⁻¹ s⁻¹
B26: Mutation 1-31 (antibody, V domains shown)
VH: B1 VH with Y32S, L58I, K98R
VL: B1 VL with L29V, Q89W

- Kd: 3.63 nM
- koff: 0.000145 s⁻¹
- kon: 39900 M⁻¹ s⁻¹
B27: Mutation 1-37 (antibody, V domains shown)
VH: B1 VH with Y32S, L58I, K98R
VL: B1 VL with L29V, S50T, Q89Y

- Kd: 0.765 nM
- koff: 0.000299 s⁻¹
- kon: 391000 M⁻¹ s⁻¹
B28: Mutation 1-49 (antibody, V domains shown)
VH: B1 VH with Y32S, L58I, K98R
VL: B1 VL with L29V, S50T
